Values joined by “and” are separate entries in the source; they are usually repeats but may differ in a detail not shown here. Identical values can stand only once.

For test [1], the target named is Human C3c (plasma-purified) (human, UniProt P01024 23-667; P01024 749-954; P01024 1321-1663). The test can be described thus: SPR, amine-coupled C3 fragments on C1 chip.
Test [2] has as its target T1, Human C3d (plasma-purified) (human, UniProt P01024 1002-1303).
T1 construct: domain: TED; also called TED of C3b
Nature of the test: SPR, amine-coupled C3 fragments on C1 chip. For orientation: SPR reads the build-up and loss of mass on a sensor chip optically.

Test [3] has as its target Human C3b (plasma-purified) (human, UniProt P01024 23-667; P01024 749-1663). Nature of the test: SPR, amine-coupled C3 fragments on C1 chip.
The target in test [4] is T2, Human complement factor H purified from plasma (human, UniProt P08603 19-1231). Nature of the test: cell-based or functional assay.
T2 sequence (P08603 19-1231 limits assumed): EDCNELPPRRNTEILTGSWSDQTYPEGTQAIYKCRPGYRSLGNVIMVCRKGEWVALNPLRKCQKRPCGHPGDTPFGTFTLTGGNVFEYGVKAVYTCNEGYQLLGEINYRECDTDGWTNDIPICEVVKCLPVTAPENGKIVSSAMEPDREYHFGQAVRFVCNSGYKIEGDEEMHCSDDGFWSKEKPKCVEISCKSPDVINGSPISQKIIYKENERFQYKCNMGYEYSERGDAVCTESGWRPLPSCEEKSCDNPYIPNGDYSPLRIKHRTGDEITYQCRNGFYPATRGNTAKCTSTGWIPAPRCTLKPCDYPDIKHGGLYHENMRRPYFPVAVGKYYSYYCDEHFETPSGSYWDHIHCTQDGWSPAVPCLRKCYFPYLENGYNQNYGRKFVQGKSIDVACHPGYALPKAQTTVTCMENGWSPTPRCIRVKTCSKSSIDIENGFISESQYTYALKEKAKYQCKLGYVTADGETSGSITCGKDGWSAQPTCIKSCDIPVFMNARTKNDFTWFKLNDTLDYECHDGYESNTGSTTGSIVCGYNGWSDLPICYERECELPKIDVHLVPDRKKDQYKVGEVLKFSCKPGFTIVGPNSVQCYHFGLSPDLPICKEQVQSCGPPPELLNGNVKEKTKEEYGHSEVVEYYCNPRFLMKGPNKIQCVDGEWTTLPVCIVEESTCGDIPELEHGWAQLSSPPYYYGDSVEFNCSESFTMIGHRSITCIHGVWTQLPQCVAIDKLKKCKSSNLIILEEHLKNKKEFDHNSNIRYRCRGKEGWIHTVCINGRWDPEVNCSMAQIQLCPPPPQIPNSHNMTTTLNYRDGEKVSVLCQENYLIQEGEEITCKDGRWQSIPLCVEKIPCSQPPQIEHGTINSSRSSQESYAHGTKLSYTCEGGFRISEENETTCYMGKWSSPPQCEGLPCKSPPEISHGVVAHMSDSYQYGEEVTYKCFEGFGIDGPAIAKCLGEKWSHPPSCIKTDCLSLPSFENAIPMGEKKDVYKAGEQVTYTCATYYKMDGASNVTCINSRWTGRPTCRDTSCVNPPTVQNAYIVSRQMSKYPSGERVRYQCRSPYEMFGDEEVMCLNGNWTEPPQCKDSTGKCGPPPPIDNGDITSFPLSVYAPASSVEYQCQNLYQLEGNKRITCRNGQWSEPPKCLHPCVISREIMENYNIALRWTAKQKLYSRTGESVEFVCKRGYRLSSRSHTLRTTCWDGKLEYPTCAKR
Test [5] deals with T3, Recombinant human CFH, wild-type sequence, from Pichia pastoris (human, UniProt P08603 19-1231). The test can be described thus: cell-based or functional assay.
T3 sequence (P08603 19-1231 limits assumed): as above
In test [6] the target is T4, CFH 6-8 (recombinant construct corresponding to CFH CCPs 6-8) (human, UniProt P08603 321-509).
T4 sequence: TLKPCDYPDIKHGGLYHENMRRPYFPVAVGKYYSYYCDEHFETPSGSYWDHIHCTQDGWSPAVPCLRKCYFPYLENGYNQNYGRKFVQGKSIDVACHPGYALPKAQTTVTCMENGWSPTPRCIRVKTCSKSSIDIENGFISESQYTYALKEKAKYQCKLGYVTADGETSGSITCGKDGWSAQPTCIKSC
The test can be described thus: SPR, sPspCN on NTA/Ni2+ chip.

Test [7] has as its target T5, CFH 10-11 (recombinant fragment, CCPs 10-11 of human CFH) (human, UniProt P08603 567-686).
T5 sequence: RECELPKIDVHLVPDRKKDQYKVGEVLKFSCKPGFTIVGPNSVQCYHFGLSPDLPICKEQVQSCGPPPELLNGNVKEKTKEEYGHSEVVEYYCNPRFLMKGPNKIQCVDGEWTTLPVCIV
The test can be described thus: SPR, sPspCN on NTA/Ni2+ chip.

The target of test [8] is T6, CFH 8-15 (recombinant fragment, CCPs 8-15 of human CFH) (human, UniProt P08603 446-928).
T6 construct: also called CF8-15
T6 sequence: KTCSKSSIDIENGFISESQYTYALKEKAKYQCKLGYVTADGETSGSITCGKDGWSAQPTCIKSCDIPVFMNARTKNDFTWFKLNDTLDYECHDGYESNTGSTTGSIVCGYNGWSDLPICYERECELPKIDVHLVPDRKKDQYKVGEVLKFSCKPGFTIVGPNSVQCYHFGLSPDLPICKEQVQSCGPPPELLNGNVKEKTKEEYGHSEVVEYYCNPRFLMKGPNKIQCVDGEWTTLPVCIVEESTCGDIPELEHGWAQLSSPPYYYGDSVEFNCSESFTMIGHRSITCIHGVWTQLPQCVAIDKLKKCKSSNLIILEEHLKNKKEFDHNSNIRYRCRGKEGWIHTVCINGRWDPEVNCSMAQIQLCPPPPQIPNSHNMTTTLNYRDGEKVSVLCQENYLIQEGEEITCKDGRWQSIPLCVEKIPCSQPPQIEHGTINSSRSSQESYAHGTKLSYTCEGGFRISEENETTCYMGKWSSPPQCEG
Nature of the test: SPR, sPspCN on NTA/Ni2+ chip.

The target of test [9] is T7, CFH 10-15 (recombinant fragment, CCPs 10-15 of human CFH) (human, UniProt P08603 567-928).
T7 sequence: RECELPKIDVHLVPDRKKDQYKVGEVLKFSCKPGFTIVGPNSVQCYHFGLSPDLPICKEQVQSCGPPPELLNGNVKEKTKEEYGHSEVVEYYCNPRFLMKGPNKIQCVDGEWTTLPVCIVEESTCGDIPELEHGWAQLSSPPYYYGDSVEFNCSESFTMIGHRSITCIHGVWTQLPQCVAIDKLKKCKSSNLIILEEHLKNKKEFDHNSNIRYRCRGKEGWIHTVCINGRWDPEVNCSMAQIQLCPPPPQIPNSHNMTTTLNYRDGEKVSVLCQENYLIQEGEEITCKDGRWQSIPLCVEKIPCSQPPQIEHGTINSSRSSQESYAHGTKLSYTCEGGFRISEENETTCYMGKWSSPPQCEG
The test can be described thus: SPR, immobilised sPspCN.

For test [10], the target named is T8, CFH 8-9 (recombinant fragment, CCPs 8-9 of human CFH) (human, UniProt P08603 446-566).
T8 sequence: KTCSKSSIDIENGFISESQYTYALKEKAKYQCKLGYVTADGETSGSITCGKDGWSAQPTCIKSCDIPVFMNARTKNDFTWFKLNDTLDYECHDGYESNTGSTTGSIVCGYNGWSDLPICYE
The test can be described thus: SPR, sPspCN on NTA/Ni2+ chip, CFH 8-9 concentration series, equilibrium method.

Test [11] has as its target T9, Recombinant human CFH (D1119G) from Pichia pastoris (human, UniProt P08603 19-1231).
T9 construct: also called rCFH-D1119G; rCFH (D1119G)
The test can be described thus: SPR, sPspCN on NTA/Ni2+ chip, rCFH-D1119G as analyte, 1:1 kinetic fit.

Test [12] deals with T2, Human complement factor H purified from …. Nature of the test: not stated there (SPR in the examples).
Test [13] has as its target T6, CFH 8-15 (recombinant fragment, CCPs …). Nature of the test: SPR, sPspCN on NTA/Ni2+ chip, CFH 8-15 as analyte, 1:1 kinetic fit.
Test [14] concerns the target T3, Recombinant human CFH, wild-type …. Nature of the test: SPR, sPspCN on NTA/Ni2+ chip, rCFH as analyte, 1:1 kinetic fit.
The target in test [15] is T2, Human complement factor H purified from …. The test can be described thus: SPR, sPspCN on NTA/Ni2+ chip, CFH as analyte, 1:1 kinetic fit.

Chain of Human C3b (plasma-purified) (P01024 23-667 limits assumed, chain 1 of 2): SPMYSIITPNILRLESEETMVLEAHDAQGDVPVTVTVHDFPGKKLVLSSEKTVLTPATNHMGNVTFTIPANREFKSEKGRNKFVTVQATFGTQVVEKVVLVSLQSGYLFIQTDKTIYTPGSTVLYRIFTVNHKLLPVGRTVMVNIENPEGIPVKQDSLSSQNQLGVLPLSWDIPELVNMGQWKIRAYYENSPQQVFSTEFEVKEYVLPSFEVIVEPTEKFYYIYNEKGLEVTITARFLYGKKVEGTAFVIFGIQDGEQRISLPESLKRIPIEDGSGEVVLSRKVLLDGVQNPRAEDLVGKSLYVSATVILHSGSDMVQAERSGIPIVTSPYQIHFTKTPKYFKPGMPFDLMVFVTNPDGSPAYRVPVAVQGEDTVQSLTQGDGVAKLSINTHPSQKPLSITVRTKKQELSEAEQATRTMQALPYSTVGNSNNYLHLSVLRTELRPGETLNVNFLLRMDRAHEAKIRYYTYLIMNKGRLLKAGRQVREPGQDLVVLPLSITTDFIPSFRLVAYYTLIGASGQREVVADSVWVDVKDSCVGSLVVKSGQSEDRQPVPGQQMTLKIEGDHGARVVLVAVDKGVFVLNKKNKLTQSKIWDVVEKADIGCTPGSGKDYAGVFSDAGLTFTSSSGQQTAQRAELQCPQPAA
Chain of Human C3b (plasma-purified) (P01024 749-1663 limits assumed, chain 2 of 2): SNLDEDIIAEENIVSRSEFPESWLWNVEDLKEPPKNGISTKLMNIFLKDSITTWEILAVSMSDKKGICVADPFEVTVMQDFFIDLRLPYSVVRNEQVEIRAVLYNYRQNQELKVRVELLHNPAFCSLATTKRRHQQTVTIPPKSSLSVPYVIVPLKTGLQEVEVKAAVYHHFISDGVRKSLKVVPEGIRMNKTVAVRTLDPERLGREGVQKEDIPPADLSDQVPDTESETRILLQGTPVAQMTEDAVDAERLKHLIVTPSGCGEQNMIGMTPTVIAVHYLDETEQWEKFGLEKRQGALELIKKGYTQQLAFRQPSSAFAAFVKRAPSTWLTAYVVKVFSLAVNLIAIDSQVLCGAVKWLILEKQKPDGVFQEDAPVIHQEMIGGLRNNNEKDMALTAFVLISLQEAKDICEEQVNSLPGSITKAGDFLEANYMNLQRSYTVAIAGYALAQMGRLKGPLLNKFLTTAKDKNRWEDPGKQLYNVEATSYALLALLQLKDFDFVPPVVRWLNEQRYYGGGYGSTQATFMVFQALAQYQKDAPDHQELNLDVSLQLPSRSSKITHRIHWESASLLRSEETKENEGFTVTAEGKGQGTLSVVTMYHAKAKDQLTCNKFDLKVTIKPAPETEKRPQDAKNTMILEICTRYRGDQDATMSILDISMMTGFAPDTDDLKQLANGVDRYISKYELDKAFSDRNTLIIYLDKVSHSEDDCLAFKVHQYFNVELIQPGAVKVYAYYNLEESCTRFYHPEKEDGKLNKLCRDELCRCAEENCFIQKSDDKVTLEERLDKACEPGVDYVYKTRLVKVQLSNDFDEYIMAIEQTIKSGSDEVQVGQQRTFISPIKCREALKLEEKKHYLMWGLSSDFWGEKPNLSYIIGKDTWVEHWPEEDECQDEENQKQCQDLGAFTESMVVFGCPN
Chain of Human C3c (plasma-purified) (P01024 23-667, chain 1 of 3): as the sequence (P01024 23-667 limits assumed, chain 1 of 2) above
Chain of Human C3c (plasma-purified) (P01024 749-954, chain 2 of 3): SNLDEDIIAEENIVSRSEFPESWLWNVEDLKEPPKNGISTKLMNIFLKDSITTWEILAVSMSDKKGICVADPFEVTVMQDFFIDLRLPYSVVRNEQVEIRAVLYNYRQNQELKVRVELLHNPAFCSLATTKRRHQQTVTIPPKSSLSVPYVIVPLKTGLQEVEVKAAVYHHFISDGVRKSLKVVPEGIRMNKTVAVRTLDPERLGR
Chain of Human C3c (plasma-purified) (P01024 1321-1663, chain 3 of 3): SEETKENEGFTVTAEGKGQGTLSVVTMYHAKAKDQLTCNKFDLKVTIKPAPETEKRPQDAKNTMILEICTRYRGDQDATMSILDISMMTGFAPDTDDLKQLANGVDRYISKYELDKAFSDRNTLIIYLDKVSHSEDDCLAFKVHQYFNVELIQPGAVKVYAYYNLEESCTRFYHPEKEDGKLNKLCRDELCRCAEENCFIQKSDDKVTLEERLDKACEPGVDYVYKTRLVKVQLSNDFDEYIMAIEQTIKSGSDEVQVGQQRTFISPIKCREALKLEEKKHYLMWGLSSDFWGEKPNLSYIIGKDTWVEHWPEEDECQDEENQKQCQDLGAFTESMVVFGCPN
T9 sequence (P08603 19-1231 D1119G limits assumed): as the sequence (P08603 19-1231 limits assumed) above, with D1101G counted along it
T1 sequence (P01024 1002-1303 limits assumed): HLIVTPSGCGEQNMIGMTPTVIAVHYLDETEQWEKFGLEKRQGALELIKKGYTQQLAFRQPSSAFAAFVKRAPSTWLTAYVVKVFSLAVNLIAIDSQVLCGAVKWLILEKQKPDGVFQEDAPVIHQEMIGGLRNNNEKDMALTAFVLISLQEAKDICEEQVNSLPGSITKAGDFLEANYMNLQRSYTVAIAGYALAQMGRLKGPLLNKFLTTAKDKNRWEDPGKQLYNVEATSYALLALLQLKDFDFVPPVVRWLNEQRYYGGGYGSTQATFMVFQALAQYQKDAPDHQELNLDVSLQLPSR

B1: PspCN (cleaved, PspC residues 37-140, S. pneumoniae strain D39) (other)
chain: ATENEGSTQAATSSNMAKTEHRKAAKQVVDEYIEKMLREIQLDRRKHTQNVALNIKLSAIKTKYLRELNVLEEKSKDELPSEIKAKLDAAFEKFKKDTLKPGEK
For the molecule B1, the binding result in [1], in [2] and in [3] was “no binding” each time. In [4], the “inhibition of haemolysis of PNH-like erythrocytes by acidified normal human serum, IC50” value came out at 28 nM. For the same molecule, the “rate of decay acceleration of C3b.Bb (SPR-based assay)” value in test [5] was approximately 10 fold.

B2: sPspCN (N-terminally hexaHis-SUMO-tagged PspC residues 37-140, S. pneumoniae strain D39) (other)
chain: B1 chain
notes: not shown: N-terminal hexaHis-SUMO tag from the pE-SUMOpro Kan vector
In general, Kd refers to the constant that tells how readily two partners part at equilibrium. In the case of B2, the values for the binding result in test [6], in test [7] and in test [9] were “no binding”, “no binding” and “no binding (tested: 50 nM (from the legend))”, respectively. Besides, the Kd in test [8] was 1 nM and 2 nM; in test [10] it was 26 nM; in test [11], 0.012 nM; in test [12], approximately 0.05 pM; in test [13], 1.3 nM; in [14], 0.053 pM. This molecule yielded a Kd in test [15] of 0.045 pM.
